ChEMBL document CHEMBL1157682, “In silico prediction of human carboxylesterase-1 (hCES1) metabolism combining docking analyses and MD simulations” (Bioorg Med Chem, 2010)
“And” between values parts separate entries of the source, which are not always exact repeats. Equal values may be shown once.

Columns and labels:
[1] = substrate: COc1ccc2cc([C@@H](C#N)OC(=O)[C@@H]3[C@@H](C=C(Cl)Cl)C3(C)C)ccc2c1; assay: (§1) Activity at human recombinant CES1 expressed in baculovirus-infected Spodoptera frugiperda Sf21 cells assessed as substrate hydrolysis by fluorescence assay
[2] = substrate: CN(C)C(=O)COC(=O)Cc1ccc(OC(=O)c2ccc(NC(=N)N)cc2)cc1; assay: as §1
[3] = substrate: COc1ccc2cc([C@@H](C#N)OC(=O)[C@H]3[C@@H](C=C(Cl)Cl)C3(C)C)ccc2c1; assay: as §1
[4] = substrate: COc1ccc(C(=O)N2CCCC2=O)cc1; assay: as §1
[5] = substrate: COc1cc(C(=O)OCCCN2CCCN(CCCOC(=O)c3cc(OC)c(OC)c(OC)c3)CC2)cc(OC)c1OC; assay: as §1
[6] = substrate: CC1(C)[C@H](C=C(Cl)Cl)[C@@H]1C(=O)OCc1cccc(Oc2ccccc2)c1; assay: as §1
[7] = substrate: CCOC(=O)[C@H](CCc1ccccc1)N[C@H]1CCc2ccccc2N(CC(=O)O)C1=O; assay: as §1
[8] = substrate: CC(=O)Oc1ccc2c(C)cc(=O)oc2c1; assay: as §1
[9] = substrate: COC(=O)[C@H]1[C@@H](OC(=O)c2ccccc2)C[C@@H]2CC[C@H]1N2C; assay: as §1
[10] = substrate: CC1(C)[C@H](C(=O)OCc2cccc(Oc3ccccc3)c2)[C@@H]1C=C(Cl)Cl; assay: as §1
[11] = substrate: N[C@@H](Cc1ccccc1)C(=O)OC[C@H]1O[C@@H](n2cc(F)c(=O)[nH]c2=O)C[C@@H]1O; assay: as §1
[12] = substrate: CCOC(=O)[C@H](CCc1ccccc1)N[C@H]1CS[C@H](c2cccs2)CN(CC(=O)O)C1=O; assay: as §1
[13] = substrate: COc1ccc2cc([C@H](C#N)OC(=O)[C@H]3[C@@H](C=C(Cl)Cl)C3(C)C)ccc2c1; assay: as §1
[14] = substrate: CCOC(=O)C1(c2ccccc2)CCN(C)CC1; assay: as §1
[15] = substrate: CCOC(=O)[C@H](CCc1ccccc1)N[C@@H](C)C(=O)N1C(=O)N(C)C[C@H]1C(=O)O; assay: as §1
[16] = substrate: CCCC(=O)Oc1ccc([N+](=O)[O-])cc1; assay: as §1
[17] = substrate: CC1(C)[C@H](C=C(Cl)Cl)[C@H]1C(=O)OCc1cccc(Oc2ccccc2)c1; assay: as §1
[18] = substrate: N[C@@H](CC(=O)O)C(=O)OC[C@H]1O[C@@H](n2cc(F)c(=O)[nH]c2=O)C[C@@H]1O; assay: as §1
[19] = substrate: COc1ccc2cc(C(C#N)OC(=O)C3C(C)(C)C3(C)C)ccc2c1; assay: as §1
[20] = substrate: CC(=O)Oc1ccc2c3c1O[C@H]1[C@@H](OC(C)=O)C=C[C@H]4[C@@H](C2)N(C)CC[C@@]341; assay: as §1
[21] = substrate: CC(=O)Oc1ccc([N+](=O)[O-])cc1; assay: as §1
[22] = substrate: CC(C)=C[C@H]1[C@H](C(=O)OCc2coc(Cc3ccccc3)c2)C1(C)C; assay: as §1
[23] = substrate: CC(C)[C@H](N)C(=O)OC[C@H]1O[C@@H](n2cc(F)c(=O)[nH]c2=O)C[C@@H]1O; assay: as §1
[24] = substrate: CC(=O)O[C@H]1C=C[C@H]2[C@H]3Cc4ccc(O)c5c4[C@@]2(CCN3C)[C@H]1O5; assay: as §1
[25] = substrate: CCOC(=O)C1=C[C@@H](OC(CC)CC)[C@H](NC(C)=O)[C@@H](N)C1; assay: as §1
[26] = substrate: COc1ccc2cc([C@H](C#N)OC(=O)[C@@H]3[C@H](C=C(Cl)Cl)C3(C)C)ccc2c1; assay: as §1
[27] = substrate: COc1ccc2cc([C@H](C#N)OC(=O)[C@@H]3[C@@H](C=C(Cl)Cl)C3(C)C)ccc2c1; assay: as §1
[28] = substrate: COC(=O)[C@H](c1ccccc1)[C@H]1CCCCN1; assay: as §1
[29] = substrate: CC1(C)[C@@H](C=C(Cl)Cl)[C@@H]1C(=O)OCc1cccc(Oc2ccccc2)c1; assay: as §1
[30] = substrate: CCc1c2c(nc3ccc(OC(=O)N4CCC(N5CCCCC5)CC4)cc13)-c1cc3c(c(=O)n1C2)COC(=O)[C@]3(O)CC; assay: as §1
[31] = substrate: CCOC(=O)[C@H](CCc1ccccc1)N[C@@H](C)C(=O)N(CC(=O)O)C1Cc2ccccc2C1; assay: as §1
[32] = substrate: CCOC(=O)[C@H](CCc1ccccc1)N[C@H]1CCCN2CCC[C@@H](C(=O)O)N2C1=O; assay: as §1
[33] = substrate: COc1ccc2cc([C@H](C#N)OC(=O)[C@H]3[C@H](C=C(Cl)Cl)C3(C)C)ccc2c1; assay: as §1
[34] = substrate: CC(C)C[C@H](N)C(=O)OC[C@H]1O[C@@H](n2cc(F)c(=O)[nH]c2=O)C[C@@H]1O; assay: as §1
[35] = substrate: CCCCCOC(=O)Nc1nc(=O)n([C@@H]2O[C@H](C)[C@@H](O)[C@H]2O)cc1F; assay: as §1
[36] = substrate: [H][C@@]1([C@@H](C(=O)OC)c2ccccc2)CCCCN1; assay: as §1
[37] = substrate: CCOC(=O)[C@H](CCc1ccccc1)N[C@@H](C)C(=O)N1Cc2ccccc2C[C@H]1C(=O)O; assay: as §1
[38] = substrate: COc1ccc2cc([C@@H](C#N)OC(=O)[C@H]3[C@H](C=C(Cl)Cl)C3(C)C)ccc2c1; assay: as §1
not read = substrate: COC(=O)[C@H](c1ccccc1Cl)N1CCc2sccc2C1; assay: not read

B1: Liver carboxylesterase 1 (Homo sapiens) (protein)
chain: MWLRAFILATLSASAAWGHPSSPPVVDTVHGKVLGKFVSLEGFAQPVAIFLGIPFAKPPLGPLRFTPPQPAEPWSFVKNATSYPPMCTQDPKAGQLLSELFTNRKENIPLKLSEDCLYLNIYTPADLTKKNRLPVMVWIHGGGLMVGAASTYDGLALAAHENVVVVTIQYRLGIWGFFSTGDEHSRGNWGHLDQVAALRWVQDNIASFGGNPGSVTIFGESAGGESVSVLVLSPLAKNLFHRAISESGVALTSVLVKKGDVKPLAEQIAITAGCKTTTSAVMVHCLRQKTEEELLETTLKMKFLSLDLQGDPRESQPLLGTVIDGMLLLKTPEELQAERNFHTVPYMVGINKQEFGWLIPMQLMSYPLSEGQLDQKTAMSLLWKSYPLVCIAKELIPEATEKYLGGTDDTVKKKDLFLDLIADVMFGVPSVIVARNHRDAGAPTYMYEFQYRPSFSSDMKPKTVIGDHGDELFSVFGAPFLKEGASEEEIRLSKMVMKFWANFARNGNPNGEGLPHWPEYNQKEGYLQIGANTQAAQKLKDKEVAFWTNLFAKKAVEKPPQTEHIEL
With B1 the Km [1] was 0.7 µM, the Km [2] was 707 µM and the Km [3] was 1.4 µM. The Km [4] was 85 µM and 95 µM, the Km [5] was 154 µM and the Km [6] was 23.8 µM. For the same protein, the Km [7] was 734 µM, the Km [8] was 800 µM and the Km [9] was 120 µM. For the same protein, the Km [10] was 23.8 µM, the Km [11] was 460 µM and the Km [12] was 786 µM. For the same protein, the Km [13] was 1.5 µM, the Km [14] was 1900 µM and the Km [15] was 287 µM. The Km [16] was 130 µM, the Km [17] was 9.8 µM and the Km [18] was 3000 µM. It also gave a Km [19] of 1.5 µM, a Km [20] of 6300 µM and a Km [21] of 359 µM. The Km [22] was 6.72 µM, the Km [23] was 3580 µM and the Km [24] was 8300 µM. The Km [25] was 177 µM, the Km [26] was 0.3 µM and the Km [27] was 1.7 µM. For the same protein, the Km [28] was 43.8 µM, the Km [29] was 9.8 µM and the Km [30] was 1450 µM. It also gave a Km [31] of 1500 µM, a Km [32] of 1300 µM and a Km [33] of 1.9 µM. It also gave a Km [34] of 970 µM, a Km [35] of 1300 µM and a Km [36] of 89.9 µM. For the same protein, the Km [37] was 134 µM, the Km [38] was 2.4 µM and the Km (not read) was 55.7 µM.
